Data from patent US20230125788, “TDP-43 MODULATING AGENTS AND USES THEREOF” (Washington University, published 2023).

T1: TDP-43 deltaN (UniProt Q13148 Q13148:102-414)
T1 chain: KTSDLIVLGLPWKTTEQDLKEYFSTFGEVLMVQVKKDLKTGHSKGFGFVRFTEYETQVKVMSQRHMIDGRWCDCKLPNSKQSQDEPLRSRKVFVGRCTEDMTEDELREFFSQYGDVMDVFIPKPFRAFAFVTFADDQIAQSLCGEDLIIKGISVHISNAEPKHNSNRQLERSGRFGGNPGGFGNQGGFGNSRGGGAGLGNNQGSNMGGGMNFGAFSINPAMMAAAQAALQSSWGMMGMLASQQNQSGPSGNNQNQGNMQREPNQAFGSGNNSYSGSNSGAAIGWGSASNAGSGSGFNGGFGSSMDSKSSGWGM

T2: TDP-43 RRM1-2 (UniProt Q13148 Q13148:102-269)
T2 chain: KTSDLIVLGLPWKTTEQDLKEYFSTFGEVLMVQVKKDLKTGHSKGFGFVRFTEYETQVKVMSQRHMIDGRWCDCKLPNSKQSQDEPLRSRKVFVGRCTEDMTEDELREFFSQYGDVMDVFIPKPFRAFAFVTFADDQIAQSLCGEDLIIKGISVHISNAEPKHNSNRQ


Columns and labels:
TDP-43 WT [1] = biological target: T3, TDP-43 WT (UniProt Q13148 Q13148:1-414); assay: FP; Kd dramatically lower than unmodified; values only in figure; conditions: tags: N-terminal His6-SUMO (Smt3), E. coli BL21(DE3), pET28b(+)-SUMO-TDP43
T3 sequence (Q13148 whole entry, one chain of several): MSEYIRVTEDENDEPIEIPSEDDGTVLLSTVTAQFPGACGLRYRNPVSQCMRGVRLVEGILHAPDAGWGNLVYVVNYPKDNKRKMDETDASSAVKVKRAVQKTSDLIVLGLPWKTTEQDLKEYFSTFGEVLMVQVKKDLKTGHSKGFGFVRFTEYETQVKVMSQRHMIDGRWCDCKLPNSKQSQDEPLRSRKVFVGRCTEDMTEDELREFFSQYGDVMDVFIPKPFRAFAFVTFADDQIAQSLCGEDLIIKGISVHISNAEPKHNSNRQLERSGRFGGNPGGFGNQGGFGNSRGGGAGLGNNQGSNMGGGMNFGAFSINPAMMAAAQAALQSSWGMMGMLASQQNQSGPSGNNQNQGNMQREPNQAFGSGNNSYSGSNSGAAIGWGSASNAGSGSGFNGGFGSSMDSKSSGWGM

TDP-43 WT [2] = biological target: T3, TDP-43 WT; assay: FP; higher Kd than modified; values only in figure; conditions: tags: N-terminal His6-SUMO (Smt3), E. coli BL21(DE3), pET28b(+)-SUMO-TDP43
TDP-43 WT [3] = biological target: T3, TDP-43 WT; assay: EMSA; at least three TDP-43 bound per oligo; 150 mM NaCl, 2 mM MgCl2, Tris pH 8; conditions: tags: N-terminal His6-SUMO (Smt3), E. coli BL21(DE3), pET28b(+)-SUMO-TDP43; label: 5' 700 nm IR dye
TDP-43 deltaN = biological target: T1, TDP-43 deltaN; assay: FP; apparent; 300 mM NaCl; conditions: tags: N-terminal His6-SUMO; label: FITC
TDP-43 RRM1-2 = biological target: T2, TDP-43 RRM1-2; assay: FP; apparent; 300 mM NaCl; conditions: tags: N-terminal His6-SUMO; label: FITC
TDP-43 WT [4] = biological target: T3, TDP-43 WT; assay: FP; apparent; 300 mM NaCl, 10 mM Tris pH 8.0; conditions: tags: N-terminal His6-SUMO (Smt3), E. coli BL21(DE3), pET28b(+)-SUMO-TDP43; label: FITC
Procedure: Each point is the average of >3 technical and 3 biological replicates, respectively (SEM).
Recombinant TDP-43 wild-type (WT) and constructs previously purified were serially diluted in a 1:2 ratio (from 75 to 0 nM) into a 300 mM of NaCl, 10 mM of Tris (pH 8.0), 5% glycerol, 5% sucrose, 1 mM of TCEP buffer solution. A(GU)₆ RNA labeled with fluorescein isothiocyanate (FITC) from IDT was used at a final concentration of 0.6, 1.3, 2.5, and 5 nM. […] The anisotropy measurements were performed in a Biotek SYNERGY Neo2 (BioSPX) plate reader with excitation and emission wavelengths of 480 and 520 nm, respectively. To assess the binding curves, the data were fitted as previously described. Data analysis was performed using GraphPad Prism 5.

Row | Binder | binding result (TDP-43 WT [1]) | binding result (TDP-43 WT [2]) | also measured
1 | AGTGTGTGTGTGT (XNA, 2'-OMe all; PS all linkages) [A(GU)6 2OMe] | binds |  | 
2 | AGUGUGUGUGUGU (ssRNA) [A(GU)6 unmodified] |  | binds | 
3 | GAGAGAGCGCGUGCAGAGACUUGGUGGUGCAUAA (ssRNA) [CLIP34 IR700] |  |  | binding result (TDP-43 WT [3]): binds
4 | GAGAGAGCGCGUGCAGAGACUUGGUGGUGCAUAA (ssRNA) [CLIP34 unmodified] |  | binds | 
5 | AGUGUGUGUGUGU (ssRNA, 2'-OMe and PS unless otherwise noted (general statement)) [A(GU)6-FITC] |  |  | Kd (TDP-43 deltaN): 0.7 nM; Kd (TDP-43 RRM1-2): 0.8 nM; Kd (TDP-43 WT [4]): 0.8 nM
6 | GAGAGAGCGCGTGCAGAGACTTGGTGGTGCATAA (XNA, 2'-OMe all; PS all linkages) [CLIP34 2OMe] | binds |  | 
